Legend:
[1] = target: T1, human cathepsin K (UniProt P43235)
T1 sequence: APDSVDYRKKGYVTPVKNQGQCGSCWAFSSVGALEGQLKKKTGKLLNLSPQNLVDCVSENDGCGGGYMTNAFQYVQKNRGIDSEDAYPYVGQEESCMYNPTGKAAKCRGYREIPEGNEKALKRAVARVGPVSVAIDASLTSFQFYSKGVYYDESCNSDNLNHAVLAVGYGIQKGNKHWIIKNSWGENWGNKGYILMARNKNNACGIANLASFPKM

[2] = target: human cathepsin V (UniProt O60911)
[3] = target: human cathepsin B (UniProt P07858)
[4] = target: T2, human cathepsin H (UniProt P09668)
T2 sequence: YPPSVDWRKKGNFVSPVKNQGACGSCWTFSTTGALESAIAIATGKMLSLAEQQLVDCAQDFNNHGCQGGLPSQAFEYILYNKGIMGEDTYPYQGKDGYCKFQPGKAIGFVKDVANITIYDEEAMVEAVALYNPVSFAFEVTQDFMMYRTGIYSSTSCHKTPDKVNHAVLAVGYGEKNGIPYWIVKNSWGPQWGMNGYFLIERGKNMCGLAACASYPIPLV

[5] = target: human elastase (UniProt P08246)
[6] = target: human granzyme B (UniProt P10144)
[7] = target: T3, human granzyme A (UniProt P12544)
T3 sequence: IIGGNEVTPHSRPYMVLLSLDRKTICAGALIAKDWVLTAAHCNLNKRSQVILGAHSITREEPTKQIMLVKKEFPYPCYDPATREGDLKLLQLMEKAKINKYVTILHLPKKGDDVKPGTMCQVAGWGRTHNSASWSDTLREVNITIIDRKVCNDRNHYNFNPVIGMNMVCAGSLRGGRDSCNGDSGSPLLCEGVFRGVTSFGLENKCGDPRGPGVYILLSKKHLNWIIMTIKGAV

[8] = target: human cathepsin L (UniProt P07711)
[9] = target: T4, human cathepsin G (UniProt P08311)
T4 sequence: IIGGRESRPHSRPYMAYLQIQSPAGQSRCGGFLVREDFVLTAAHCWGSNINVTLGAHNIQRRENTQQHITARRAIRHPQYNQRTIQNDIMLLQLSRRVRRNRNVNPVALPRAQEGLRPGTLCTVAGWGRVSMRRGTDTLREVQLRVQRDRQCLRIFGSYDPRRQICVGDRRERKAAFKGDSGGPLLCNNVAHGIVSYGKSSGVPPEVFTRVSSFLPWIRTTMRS

[10] = tested on: Spi2A-3xFLAG (murine serine protease inhibitor 2A with a C-terminal 3xFLAG epitope tag)

Sequence of human cathepsin V (O60911 114-334): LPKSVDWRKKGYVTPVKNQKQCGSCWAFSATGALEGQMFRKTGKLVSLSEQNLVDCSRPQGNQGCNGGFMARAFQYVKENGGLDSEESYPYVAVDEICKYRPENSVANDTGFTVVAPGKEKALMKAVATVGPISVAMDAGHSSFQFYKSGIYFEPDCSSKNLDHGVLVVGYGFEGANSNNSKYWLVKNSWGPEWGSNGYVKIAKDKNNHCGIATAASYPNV
Sequence of human cathepsin L (P07711 114-333): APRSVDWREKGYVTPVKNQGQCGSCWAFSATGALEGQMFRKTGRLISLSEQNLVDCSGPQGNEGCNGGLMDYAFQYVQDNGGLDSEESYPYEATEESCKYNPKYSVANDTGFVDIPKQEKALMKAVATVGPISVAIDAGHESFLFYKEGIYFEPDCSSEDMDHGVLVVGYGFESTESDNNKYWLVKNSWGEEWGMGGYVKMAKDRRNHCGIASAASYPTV
Sequence of human granzyme B (P10144 21-247): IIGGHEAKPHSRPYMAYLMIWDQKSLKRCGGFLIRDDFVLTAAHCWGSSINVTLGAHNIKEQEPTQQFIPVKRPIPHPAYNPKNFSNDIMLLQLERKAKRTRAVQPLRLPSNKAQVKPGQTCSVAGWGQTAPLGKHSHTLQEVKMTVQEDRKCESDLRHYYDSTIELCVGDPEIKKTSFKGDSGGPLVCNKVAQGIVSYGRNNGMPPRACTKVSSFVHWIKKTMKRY
Sequence of human elastase (P08246 30-247): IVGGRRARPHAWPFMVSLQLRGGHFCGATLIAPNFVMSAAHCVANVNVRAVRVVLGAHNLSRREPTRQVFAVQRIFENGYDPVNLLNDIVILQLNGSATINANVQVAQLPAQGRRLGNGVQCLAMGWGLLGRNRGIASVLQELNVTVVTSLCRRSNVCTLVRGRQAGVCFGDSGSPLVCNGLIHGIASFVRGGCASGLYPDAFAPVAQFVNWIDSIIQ

| Substance | protease activity after incubation under the same conditions as with Spi2A [1] | protease activity after incubation under the same conditions as with Spi2A [2] | protease activity after incubation under the same conditions as with Spi2A [3] | protease activity after incubation under the same conditions as with Spi2A [4] | protease activity after incubation under the same conditions as with Spi2A [5] | protease activity after incubation under the same conditions as with Spi2A [6] | protease activity after incubation under the same conditions as with Spi2A [7] | protease activity after incubation under the same conditions as with Spi2A [8] | protease activity after incubation under the same conditions as with Spi2A [9] | continuous hydrolysis of the cathepsin B substrate (Z-FR)2-R110, 20 nM cathepsin B with 200 or 400 nM Spi2A [10] |
| --- | --- | --- | --- | --- | --- | --- | --- | --- | --- | --- |
| alkaline phosphatase tagged with C-terminal 3xFLAG (Sigma-Aldrich) | had no effect on protease activity | had no effect on protease activity | had no effect on protease activity | had no effect on protease activity | had no effect on protease activity | had no effect on protease activity | had no effect on protease activity | had no effect on protease activity | had no effect on protease activity | – |
| human cathepsin B | – | – | – | – | – | – | – | – | – | The enzyme was completely inhibited, within the dead time of the measurement |

Source: US20040214773
